Test results from article PMC13244463, “Intermolecular β‑sheet Formation Guides the Interaction between Ubiquitin-like Modifier FAT10 and Adapter Protein NUB1L” (Journal of the American Chemical Society, 2026).

Target: T1, Human NUB1L (amino acids 2-615) (human, UniProt Q9Y5A7-1 2-615)
T1 construct: NUB1L, the long isoform of NEDD8-ultimate buster 1, human, amino acids 2-615 (615 residues in the long isoform); Details are in the Supporting Information; also called NEDD8-ultimate buster 1 long isoform; natural abundance NUB1L; source: E. coli BL21-CodonPlus(DE3)-RIPL, LB medium, purified (same steps as for N-FAT10-C0)
T1 sequence (looked up): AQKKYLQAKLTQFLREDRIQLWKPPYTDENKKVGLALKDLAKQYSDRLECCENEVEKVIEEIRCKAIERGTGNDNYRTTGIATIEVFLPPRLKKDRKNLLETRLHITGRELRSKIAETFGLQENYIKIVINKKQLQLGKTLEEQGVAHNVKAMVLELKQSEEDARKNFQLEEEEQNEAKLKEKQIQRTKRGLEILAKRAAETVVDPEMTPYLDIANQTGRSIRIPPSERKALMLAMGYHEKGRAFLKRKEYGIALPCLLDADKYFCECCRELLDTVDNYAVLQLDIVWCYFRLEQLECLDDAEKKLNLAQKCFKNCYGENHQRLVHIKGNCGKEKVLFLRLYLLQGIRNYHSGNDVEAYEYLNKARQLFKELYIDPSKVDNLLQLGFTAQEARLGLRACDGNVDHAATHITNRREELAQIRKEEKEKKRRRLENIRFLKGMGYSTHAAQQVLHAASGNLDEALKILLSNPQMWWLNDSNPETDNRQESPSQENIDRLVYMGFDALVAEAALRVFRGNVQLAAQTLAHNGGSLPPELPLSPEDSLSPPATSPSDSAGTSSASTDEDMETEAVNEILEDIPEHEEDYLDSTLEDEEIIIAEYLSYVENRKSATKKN
Test: SEC; size-exclusion chromatography (with SDS-PAGE) of N-FAT10-C0 with NUB1L, Figure S1; conditions are in the Supporting Information
Conditions: both partners purified

B1: Cys-free N-domain of human FAT10 (amino acids 5-86; C7T, C9T) (domain or fragment)
chain: GASTLTVHVRSEEWDLMTFDANPYDSVKKIKEHVRSKTKVPVQDQVLLLGSKILKPRRSLSSYGIDKEKTIHLTLKVVKPSDE
notes: additional glycine residue at the N-terminus that remains from the TEV protease cleavage site; FAT10 (human leukocyte antigen F adjacent transcript 10), human, N-domain, amino acids 5-86, with C7T and C9T; 83 residues together with the extra glycine; Uniformly 13C,15N labelled (M9 medium with U-13C6-D-glucose and 15N-ammonium chloride) for MAS NMR; Detailed protocols are in the Supporting …
binding result: binds
